According to the supplement of paper PMC10065799, “High-throughput profiling of sequence recognition by tyrosine kinases and SH2 domains using bacterial peptide display” (eLife, 2023):

What was measured:
c-Src SH2 = test: SH2 binding enrichment of the phosphorylated peptide, bacterial display (enrichment ratio); higher = better substrate or ligand; peptides without Tyr show the background
SHP2-C SH2 = test: as above
Grb2 SH2 = Grb2 SH2 (UniProt P62993); test: as above
Jak2 = Jak2 (UniProt O60674); test: phosphorylation enrichment, bacterial display (enrichment ratio); higher = better substrate or ligand; peptides without Tyr show the background
EPHB1 = EPHB1 (UniProt P54762); test: as above
Fes = Fes (UniProt P07332); test: as above
FGFR1 = FGFR1 (UniProt P11362); test: as above
FGFR3 = FGFR3 (UniProt P22607); test: as above
Fer (mouse) = test: as above
Fyn = Fyn (UniProt P06241); test: as above
c-Src = test: as above
Hck = Hck (UniProt P08631); test: as above
c-Abl (mouse) = test: as above
MERTK = MERTK (UniProt Q12866); test: as above
EPHB2 = EPHB2 (UniProt P29323); test: as above
AncSZ = test: as above
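For SH2 binding enrichment of the phosphorylated peptide, bacterial display in this document: peptide library displayed on the E. coli surface as eCPX fusions, selected cells deep-sequenced, score is each peptide's frequency after selection divided by its frequency in the input.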
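For phosphorylation enrichment, bacterial display in this document: 11-residue human phosphosite peptides and single-mutation variants displayed on the E. coli surface, counted by deep sequencing, each peptide's frequency after selection divided by its frequency in the unselected input library; frequency after pTyr selection over input frequency; kinase dosed for 20-30% of maximal phosphorylation in three min.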

Chain of EPHB1 (P54762 whole entry, looked up): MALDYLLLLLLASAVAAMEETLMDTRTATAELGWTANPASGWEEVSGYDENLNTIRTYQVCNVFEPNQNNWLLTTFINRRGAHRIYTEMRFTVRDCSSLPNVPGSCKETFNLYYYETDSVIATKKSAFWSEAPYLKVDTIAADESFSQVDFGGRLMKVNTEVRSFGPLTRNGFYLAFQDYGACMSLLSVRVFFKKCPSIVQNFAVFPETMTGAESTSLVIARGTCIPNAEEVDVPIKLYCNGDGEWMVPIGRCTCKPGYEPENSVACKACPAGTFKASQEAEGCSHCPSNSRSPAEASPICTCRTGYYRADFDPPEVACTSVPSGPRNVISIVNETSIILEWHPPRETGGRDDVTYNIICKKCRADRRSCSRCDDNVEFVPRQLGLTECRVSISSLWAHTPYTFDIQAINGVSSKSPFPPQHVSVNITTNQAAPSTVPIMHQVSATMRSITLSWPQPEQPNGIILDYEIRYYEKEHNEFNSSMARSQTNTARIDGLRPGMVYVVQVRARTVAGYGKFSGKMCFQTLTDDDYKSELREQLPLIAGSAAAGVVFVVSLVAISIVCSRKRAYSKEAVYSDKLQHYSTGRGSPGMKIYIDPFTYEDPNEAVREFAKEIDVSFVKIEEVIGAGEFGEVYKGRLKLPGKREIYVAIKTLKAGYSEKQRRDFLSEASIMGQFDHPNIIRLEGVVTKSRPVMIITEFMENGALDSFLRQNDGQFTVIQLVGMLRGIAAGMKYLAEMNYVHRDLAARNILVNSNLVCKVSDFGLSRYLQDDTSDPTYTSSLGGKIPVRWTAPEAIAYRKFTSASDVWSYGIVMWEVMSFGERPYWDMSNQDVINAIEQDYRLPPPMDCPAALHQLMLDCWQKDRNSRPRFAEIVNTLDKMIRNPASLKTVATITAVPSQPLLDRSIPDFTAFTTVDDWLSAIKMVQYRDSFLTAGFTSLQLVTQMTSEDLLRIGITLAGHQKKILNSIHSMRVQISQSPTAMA
Chain of FGFR1 (P11362 whole entry, looked up): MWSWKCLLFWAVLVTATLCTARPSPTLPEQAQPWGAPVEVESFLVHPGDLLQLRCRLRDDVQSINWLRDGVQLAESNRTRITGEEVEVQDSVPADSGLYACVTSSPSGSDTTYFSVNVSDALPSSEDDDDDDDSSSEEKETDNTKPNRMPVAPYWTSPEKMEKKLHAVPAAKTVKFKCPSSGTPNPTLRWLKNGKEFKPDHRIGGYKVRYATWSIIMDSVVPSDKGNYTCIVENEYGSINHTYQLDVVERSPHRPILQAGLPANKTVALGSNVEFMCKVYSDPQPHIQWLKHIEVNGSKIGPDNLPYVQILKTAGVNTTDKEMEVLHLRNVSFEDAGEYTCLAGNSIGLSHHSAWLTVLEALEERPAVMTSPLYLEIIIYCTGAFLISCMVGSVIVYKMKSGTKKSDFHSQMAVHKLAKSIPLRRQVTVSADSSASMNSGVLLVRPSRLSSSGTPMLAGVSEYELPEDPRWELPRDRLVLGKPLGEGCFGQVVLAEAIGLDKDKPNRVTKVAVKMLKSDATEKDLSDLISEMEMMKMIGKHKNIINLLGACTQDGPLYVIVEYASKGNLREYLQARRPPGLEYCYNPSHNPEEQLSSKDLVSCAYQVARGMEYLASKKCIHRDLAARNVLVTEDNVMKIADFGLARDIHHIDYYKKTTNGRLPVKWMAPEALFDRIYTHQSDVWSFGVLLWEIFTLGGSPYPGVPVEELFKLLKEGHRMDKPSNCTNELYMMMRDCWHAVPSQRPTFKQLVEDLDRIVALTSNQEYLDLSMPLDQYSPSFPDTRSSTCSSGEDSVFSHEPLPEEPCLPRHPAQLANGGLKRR
Chain of EPHB2 (P29323 whole entry, looked up): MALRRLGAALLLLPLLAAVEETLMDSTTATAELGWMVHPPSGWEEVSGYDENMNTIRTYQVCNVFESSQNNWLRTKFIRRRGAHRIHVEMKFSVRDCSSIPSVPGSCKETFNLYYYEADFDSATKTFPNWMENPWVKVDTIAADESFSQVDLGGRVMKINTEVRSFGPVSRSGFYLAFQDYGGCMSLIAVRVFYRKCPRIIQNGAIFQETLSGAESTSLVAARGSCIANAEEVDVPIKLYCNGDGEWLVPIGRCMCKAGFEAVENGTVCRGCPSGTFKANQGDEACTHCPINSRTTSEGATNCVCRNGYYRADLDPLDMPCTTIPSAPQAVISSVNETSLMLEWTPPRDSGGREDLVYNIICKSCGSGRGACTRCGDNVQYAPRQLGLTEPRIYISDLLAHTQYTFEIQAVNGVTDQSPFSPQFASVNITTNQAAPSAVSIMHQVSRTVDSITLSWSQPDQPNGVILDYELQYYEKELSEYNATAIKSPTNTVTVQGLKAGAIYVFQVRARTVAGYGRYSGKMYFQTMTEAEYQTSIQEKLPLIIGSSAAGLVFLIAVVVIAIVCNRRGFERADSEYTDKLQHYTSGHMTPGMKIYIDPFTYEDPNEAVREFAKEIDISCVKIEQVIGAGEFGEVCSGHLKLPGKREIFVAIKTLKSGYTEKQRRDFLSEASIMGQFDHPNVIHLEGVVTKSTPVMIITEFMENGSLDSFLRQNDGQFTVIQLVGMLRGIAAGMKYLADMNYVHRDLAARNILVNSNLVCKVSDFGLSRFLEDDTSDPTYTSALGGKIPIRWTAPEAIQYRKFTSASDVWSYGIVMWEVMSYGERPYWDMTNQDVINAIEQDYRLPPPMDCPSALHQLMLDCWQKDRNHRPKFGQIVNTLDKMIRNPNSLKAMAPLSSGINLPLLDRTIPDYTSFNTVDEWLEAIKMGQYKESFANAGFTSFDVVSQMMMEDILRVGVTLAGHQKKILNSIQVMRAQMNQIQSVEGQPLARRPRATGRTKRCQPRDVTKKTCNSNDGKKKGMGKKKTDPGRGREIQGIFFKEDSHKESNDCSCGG
Chain of Fes (P07332 whole entry, looked up): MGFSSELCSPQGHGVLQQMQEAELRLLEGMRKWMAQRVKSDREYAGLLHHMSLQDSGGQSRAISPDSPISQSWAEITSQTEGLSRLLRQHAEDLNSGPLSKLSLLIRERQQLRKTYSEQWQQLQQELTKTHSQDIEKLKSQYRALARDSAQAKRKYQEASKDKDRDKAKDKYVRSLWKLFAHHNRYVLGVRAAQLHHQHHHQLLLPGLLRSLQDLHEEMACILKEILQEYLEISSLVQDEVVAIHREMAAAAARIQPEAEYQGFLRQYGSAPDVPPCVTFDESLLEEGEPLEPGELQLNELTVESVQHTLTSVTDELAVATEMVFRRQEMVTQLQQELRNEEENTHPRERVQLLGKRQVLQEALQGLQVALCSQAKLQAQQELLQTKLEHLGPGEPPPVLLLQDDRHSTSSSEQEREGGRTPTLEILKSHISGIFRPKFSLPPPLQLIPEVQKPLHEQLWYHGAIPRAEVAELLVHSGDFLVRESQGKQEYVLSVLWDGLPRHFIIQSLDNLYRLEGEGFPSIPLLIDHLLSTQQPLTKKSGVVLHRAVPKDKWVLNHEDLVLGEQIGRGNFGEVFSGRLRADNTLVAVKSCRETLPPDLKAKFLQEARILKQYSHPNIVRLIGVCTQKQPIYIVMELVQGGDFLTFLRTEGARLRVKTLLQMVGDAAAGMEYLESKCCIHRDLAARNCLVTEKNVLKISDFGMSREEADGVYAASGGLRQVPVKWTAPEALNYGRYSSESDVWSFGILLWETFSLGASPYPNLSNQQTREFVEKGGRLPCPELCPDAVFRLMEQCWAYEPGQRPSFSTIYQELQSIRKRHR
Chain of MERTK (Q12866 whole entry, looked up): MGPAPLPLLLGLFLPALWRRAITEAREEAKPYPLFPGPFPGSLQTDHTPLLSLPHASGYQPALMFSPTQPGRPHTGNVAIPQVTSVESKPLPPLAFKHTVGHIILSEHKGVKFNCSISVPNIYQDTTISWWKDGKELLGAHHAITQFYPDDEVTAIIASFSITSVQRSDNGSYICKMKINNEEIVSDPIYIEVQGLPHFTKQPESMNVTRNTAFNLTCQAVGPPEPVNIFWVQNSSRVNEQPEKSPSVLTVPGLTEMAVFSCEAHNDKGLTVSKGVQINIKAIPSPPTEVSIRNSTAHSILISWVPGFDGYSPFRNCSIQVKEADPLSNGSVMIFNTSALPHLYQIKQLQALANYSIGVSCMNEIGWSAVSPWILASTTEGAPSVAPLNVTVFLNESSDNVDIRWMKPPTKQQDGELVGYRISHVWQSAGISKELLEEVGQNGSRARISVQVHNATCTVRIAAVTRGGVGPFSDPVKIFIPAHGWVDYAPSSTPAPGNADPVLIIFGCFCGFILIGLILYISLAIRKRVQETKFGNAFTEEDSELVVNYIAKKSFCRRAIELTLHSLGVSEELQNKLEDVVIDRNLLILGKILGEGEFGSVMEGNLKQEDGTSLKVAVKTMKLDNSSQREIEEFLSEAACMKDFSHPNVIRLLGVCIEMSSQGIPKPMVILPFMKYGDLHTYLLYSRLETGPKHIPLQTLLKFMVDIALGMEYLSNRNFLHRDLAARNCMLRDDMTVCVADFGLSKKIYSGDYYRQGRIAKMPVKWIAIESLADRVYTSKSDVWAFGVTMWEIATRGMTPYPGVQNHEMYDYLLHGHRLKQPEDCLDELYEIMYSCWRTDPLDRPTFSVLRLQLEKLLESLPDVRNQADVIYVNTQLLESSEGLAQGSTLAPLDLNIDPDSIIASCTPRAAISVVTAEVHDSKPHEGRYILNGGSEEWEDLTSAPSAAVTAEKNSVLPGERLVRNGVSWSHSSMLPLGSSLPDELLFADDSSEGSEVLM

Row | Sequence | SH2 binding enrichment (c-Src SH2) | SH2 binding enrichment (SHP2-C SH2) | SH2 binding enrichment (Grb2 SH2) | phosphorylation enrichment (Jak2) | phosphorylation enrichment (EPHB1) | phosphorylation enrichment (Fes) | phosphorylation enrichment (FGFR1) | phosphorylation enrichment (FGFR3) | phosphorylation enrichment (Fer (mouse)) | phosphorylation enrichment (Fyn) | phosphorylation enrichment (c-Src) | phosphorylation enrichment (Hck) | phosphorylation enrichment (c-Abl (mouse)) | phosphorylation enrichment (MERTK) | phosphorylation enrichment (EPHB2) | phosphorylation enrichment (AncSZ)
1 | IGEGTSGVVFK [CDK2_Y15_Y15S_YF] | 0.515 | 0.786 | 0.844 | 0.582 | 0.418 | 0.878 | 0.339 | 0.561 | 0.382 | 0.365 | 0.405 | 0.449 | 0.501 | 0.409 | 0.457 | 0.66
2 | STILLYHIMAW [GPR143_Y157] | 0.634 | 0.899 | 0.876 | 1.89 | 4.83 | 1.64 | 2.8 | 2.88 | 1.02 | 0.766 | 1.01 | 1.44 | 1.23 | 4.05 | 2.88 | 1.59
3 | QCTSAHPLQPE [NANS_Y188_Y188H] | 0.594 | 0.465 | 0.672 | 1.28 | 1.07 | 1.73 | 0.966 | 0.961 | 0.726 | 0.601 | 0.461 | 0.771 | 1.09 | 0.449 | 0.923 | 1.25

Second part, led by results:

Row | SH2 binding enrichment (c-Src SH2) | SH2 binding enrichment (SHP2-C SH2) | SH2 binding enrichment (Grb2 SH2) | Sequence | phosphorylation enrichment (Jak2) | phosphorylation enrichment (EPHB1) | phosphorylation enrichment (Fes) | phosphorylation enrichment (FGFR1) | phosphorylation enrichment (FGFR3) | phosphorylation enrichment (Fer (mouse)) | phosphorylation enrichment (Fyn) | phosphorylation enrichment (c-Src) | phosphorylation enrichment (Hck) | phosphorylation enrichment (c-Abl (mouse)) | phosphorylation enrichment (MERTK) | phosphorylation enrichment (EPHB2) | phosphorylation enrichment (AncSZ)
4 | 0.636 | 0.698 | 0.667 | QEALEYFMKQM [PIK3CA_Y1038] | 1.49 | 0.644 | 1.22 | 0.627 | 0.704 | 0.584 | 0.696 | 0.675 | 0.39 | 1.19 | 0.584 | 0.624 | 1.36
5 | 0.455 | 0.597 | 0.776 | KIMVIYDGACQ [VWDE_Y1035_T1032M] | 1.83 | 1.3 | 1.69 | 0.687 | 1.07 | 0.897 | 0.885 | 0.796 | 1.49 | 0.965 | 0.519 | 1.11 | 1.35
